According to paper PMC4367809 (2015):

How the values were obtained:
[1] = molecular target: actin filament pointed end (Oryctolagus cuniculus, UniProt P68135); assay: pointed end elongation assay
actin (ATP-actin:GS1) = actin (ATP-actin:GS1) (Oryctolagus cuniculus, UniProt P68135); assay: ITC

Row | Binder | Kd [1] | Kd (actin (ATP-actin:GS1))
1 | Tropomodulin-1 (protein, 1 uM tropomyosin, filament seeds capped at barbed end by capping protein) MSYRRELEKYRDLDEDEILGALTEEELRTLENELDELDPDNALLPAGLRQKDQTTKAPTGPFKREELLDHLEKQAKEFKDREDLVPYTGEKRGKVWVPKQKPLDPVLESVTLEPELEEALANASDAELCDIAAILGMHTLMSNQQYYQALSSSSIMNKEGLNSVIKPTQYKPVPDEEPNSTDVEETLERIKNNDPKLEEVNLNNIRNIPIPTLKAYAEALKENSYVKKFSIVGTRSNDPVAYALAEMLKENKVLKTLNVESNFISGAGILRLVEALPYNTSLVEMKIDNQSQPLGNKVEMEIVSMLEKNATLLKFGYHFTQQGPRLRASNAMMNNNDLVRKRRLADLTGPIIPKCRSGV | 0.028 µM | 
2 | Tropomodulin-1 (protein, filament seeds capped at barbed end by capping protein) MSYRRELEKYRDLDEDEILGALTEEELRTLENELDELDPDNALLPAGLRQKDQTTKAPTGPFKREELLDHLEKQAKEFKDREDLVPYTGEKRGKVWVPKQKPLDPVLESVTLEPELEEALANASDAELCDIAAILGMHTLMSNQQYYQALSSSSIMNKEGLNSVIKPTQYKPVPDEEPNSTDVEETLERIKNNDPKLEEVNLNNIRNIPIPTLKAYAEALKENSYVKKFSIVGTRSNDPVAYALAEMLKENKVLKTLNVESNFISGAGILRLVEALPYNTSLVEMKIDNQSQPLGNKVEMEIVSMLEKNATLLKFGYHFTQQGPRLRASNAMMNNNDLVRKRRLADLTGPIIPKCRSGV | 0.108 µM | 

Continued, values first:

Row | Kd [1] | Kd (actin (ATP-actin:GS1)) | Binder
3 |  | 10.5 µM | Tropomodulin-1 ABS2 160-349 (protein, actin in complex with gelsolin segment 1, ATP) GLNSVIKPTQYKPVPDEEPNSTDVEETLERIKNNDPKLEEVNLNNIRNIPIPTLKAYAEALKENSYVKKFSIVGTRSNDPVAYALAEMLKENKVLKTLNVESNFISGAGILRLVEALPYNTSLVEMKIDNQSQPLGNKVEMEIVSMLEKNATLLKFGYHFTQQGPRLRASNAMMNNNDLVRKRRLADLTG
4 |  | 7.5 µM | Tropomodulin-1 ABS1 50-101 (protein, actin in complex with gelsolin segment 1, ATP) QKDQTTKAPTGPFKREELLDHLEKQAKEFKDREDLVPYTGEKRGKVWVPKQK
